The results in this text go back to publication PMC9486129 (2022).

Where no end group is shown, it is not given here. [ ]: non-standard residue; d: D form. pY = N[C@@H](Cc1ccc(OP(=O)(O)O)cc1)C(=O)O

Test [1] concerns the target T1, ZAP-70 tSH2 WT (1–256).
T1 chain: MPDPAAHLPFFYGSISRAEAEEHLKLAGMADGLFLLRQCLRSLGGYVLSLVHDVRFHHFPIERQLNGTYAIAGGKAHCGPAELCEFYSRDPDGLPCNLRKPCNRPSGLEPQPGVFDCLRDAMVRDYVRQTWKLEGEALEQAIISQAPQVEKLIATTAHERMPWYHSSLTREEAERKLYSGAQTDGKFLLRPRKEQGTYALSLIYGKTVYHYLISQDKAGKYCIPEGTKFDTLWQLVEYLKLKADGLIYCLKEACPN
Kind of test: Kd1, first site (intrinsic fluorescence titration).

In test [2] the target is T1, ZAP-70 tSH2 WT (1–256). Kind of test: ITC; Kd2, second site. (ITC needs no label: the signal is the heat of the interaction.)
Test [3] has as its target ITAM-Y2P-ζ3 ITAM3 (Homo sapiens, UniProt P20963, doubly phosphorylated ITAM).

Sequence of ITAM-Y2P-ζ3 ITAM3 (P20963 128-162): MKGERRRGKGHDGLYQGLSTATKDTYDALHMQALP

Consider NQL[pY]NELNLGRRAE[pY]DVLD [ITAM-Y2P-ζ1 E13A], for which the Kd came to 4.5 nM in test [1] and 9800 nM in test [2].

B1: ZAP-70 C-SH2 (protein)
chain: WYHSSLTREEAERKLYSGAQTDGKFLLRPRKEQGTYALSLIYGKTVYHYLISQDKAGKYCIPEGTKFDTLWQLVEYLKLKADGLIYCLKEAC
Molecule B1 registered a Kd in test [3] of 6.8 nM.

Broadly, the Kd is the equilibrium constant for the complex coming apart.
